Data from patent publication US6987168.
“And” between values parts separate entries of the source, which are not always exact repeats. Equal entries are not always repeated.

Assays:
Assay in all cases: cell-based or functional assay
[1] = molecular target: plasmin
[2] = molecular target: trypsin
[3] = molecular target: tissue kallikrein
[4] = molecular target: recombinant human tryptase (Promega) (human) (UniProt Q15661); settings: scale: % of the activity in the absence of inhibitor
UniProt Q15661, sequence (Q15661 31-275): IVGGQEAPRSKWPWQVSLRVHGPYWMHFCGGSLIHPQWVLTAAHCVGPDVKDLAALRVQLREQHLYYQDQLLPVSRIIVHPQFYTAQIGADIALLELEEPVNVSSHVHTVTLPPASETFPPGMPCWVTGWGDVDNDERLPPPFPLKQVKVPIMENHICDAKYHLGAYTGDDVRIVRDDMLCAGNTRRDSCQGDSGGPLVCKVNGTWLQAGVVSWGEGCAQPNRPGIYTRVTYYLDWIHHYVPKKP

| Substance | concentration corresponding with 50% plasmin inhibition (peptide release from resorufin-labelled casein); one of two values from two assumed molecular masses (12 kDa or 13.5 kDa) [1] | concentration for 50% trypsin inhibition (peptide release from resorufin-labelled casein); one of two values from two assumed molecular masses (12 kDa or 13.5 kDa) [2] | tissue kallikrein activity (n-benzoyl-Pro-Phe-Arg-pNA, absorbance at 410 nm); percent inhibition at 7.5 µM rTdPI (% inhibition at 7.5 µM) [3] | residual catalytic activity of tryptase (n-α-benzoyl-DL-Arg-p-nitroanilide, absorbance at 405 nm) after preincubation with rTdPI [4] | concentration corresponding with 50% plasmin inhibition (peptide release from resorufin-labelled casein) [1] [µM] | concentration for 50% trypsin inhibition (peptide release from resorufin-labelled casein) [2] [µM] |
| --- | --- | --- | --- | --- | --- | --- |
| Recombinant tick-derived protease inhibitor protein (rTdPI), histidine-tagged | 0.32 µM and 0.43 µM | 0.044 µM and 0.033 µM | 50 | 33 | – | – |
| soybean trypsin inhibitor (from UniProt P01070 25-205) | – | – | – | – | 0.23 | 0.026 |
